Assays:
[1] = target: T1, ECD of murine IGSF11, recombinant biotinylated (mouse, UniProt P0C673 23-240); assay: ELISA RFU>1.0
T1 construct: whole entry named; also called Mouse IGSF11
T1 sequence: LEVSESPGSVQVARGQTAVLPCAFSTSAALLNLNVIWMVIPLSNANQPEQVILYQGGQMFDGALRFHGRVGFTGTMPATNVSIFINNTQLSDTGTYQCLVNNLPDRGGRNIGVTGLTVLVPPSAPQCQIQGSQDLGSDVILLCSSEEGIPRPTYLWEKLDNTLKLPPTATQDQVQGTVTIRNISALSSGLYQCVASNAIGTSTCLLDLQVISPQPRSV

[2] = target: T2, extracellular domain (ECD) of human IGSF11 (VSIG3), recombinant (human, UniProt Q5DX21 23-241); assay: ELISA RFU 0.5-1.0
T2 construct: biotinylated where captured on streptavidin; tags of the reagent not always stated; also called IGSF11 (ECD domain); ECD-IGSF11
T2 sequence: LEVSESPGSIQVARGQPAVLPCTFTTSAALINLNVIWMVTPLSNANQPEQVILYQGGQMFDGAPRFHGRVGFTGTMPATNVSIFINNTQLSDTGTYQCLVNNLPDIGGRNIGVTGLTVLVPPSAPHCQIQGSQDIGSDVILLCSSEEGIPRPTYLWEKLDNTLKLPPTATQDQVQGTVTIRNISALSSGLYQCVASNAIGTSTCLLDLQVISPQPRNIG

[3] = target: T2, extracellular domain (ECD) of human …; assay: ELISA RFU 0.1-0.5

| Binder | ELISA binding signal (RFU) [1] [rfu] | ELISA binding signal (RFU) [2] [rfu] | ELISA binding signal (RFU) [3] [rfu] |
| --- | --- | --- | --- |
| A-035 (scFv format) (scFv, V domains shown, scFv) VH: QVQLVQSGAEVKKPGASVKVSCKASGYTFTGYYMHWVRQAPGQGLEWMGWINPNSGNTGYAQKFQGRVTMTRNTSISTAYMELSSLRSEDTAVYYCARGRLERGYWYFDLWGRGTLVTVSS VL: NFMLTQPHSVSESPGRTVTISCTRSSGSITSNYVQWYQQRPGSAPTILIYEDKERPSEVPDRFSGSIDISSNSASLTISGLKTEDEADYYCQSYGGTSQGVLFGGGTKVTVL | > 1 | 0.5 to 1 |  |
| A-011 (scFv format) (scFv, V domains shown, scFv) VH: QVQLVESGGGVVQPGRSLRLSCAASGFTFSSYAMHWVRQAPGKGLEWVAVISYDGSNKYYADSVKGRFTISRDNSKNTLYLQMNSLRAEDTAVYYCAEGGALNYYGMDVWGQGTTVTVSS VL: SSELTQDPGVSVALGQTVRITCQGDSLRHFYATWYQQKPGQAPILVIYGKNNRPSGIPDRFSGSSSEDTASLTITGAQAEDEADYYCQSRDPRNNHLIFGGGTKLIVL | > 1 |  | 0.1 to 0.5 |
| A-004 (scFv format) (scFv, V domains shown, scFv) VH: EVQLVESGGGLVKPGGSLRLSCAASGFTFSSYSMNWVRQAPGKGLEWVSSISSSSSYIYYADSVKGRFTISRDNAKNSLYLQMNSLRAEDTAVYYCARGQLLWFGESALIDAFDIWGQGTMVTVSS VL: EIVLTQSPSSLSASVGDRVTITCRASQSISSYLNWYQLKPGKAPKLLIYAASILQSGVPSRFSGSGSGTDFTLTISSLQPEDFAAYYCQQSYSTPRTFGQGTKLEIK | > 1 | 0.5 to 1 |  |
| A-022 (scFv format) (scFv, V domains shown, scFv) VH: EVQLLESGPGLVKPSQTLSLTCTVSGGSISSGGYYWSWIRQHPGKGLEWIGYIYYSGSTYYNPSLKSRVTISVDTSKNQFSLKLSSVTAADTAVYYCARASRSTDYYFDYWGQGTLVTVSS VL: QPGLTQPPSMSYGLGQTATLTCTGNRNNIGDQGAAWLQQHQGHPPKLLSYRNNNGPSGISERLSASRSGNTASLTISGLQPEDEADYYCSAWDSSLRAWVFGGGTKLTVL | > 1 | 0.5 to 1 |  |

Source: patent publication US20220372138A1 (IOMX THERAPEUTICS, published 2022)
